Source: US20240383990A1 (DIAGONAL THERAPEUTICS, published 2024)
Read-outs that look alike come from different tables or passages of the source.

How the values were obtained:
Test in all cases: cell-based or functional assay
[1] = molecular target: T1, ALK1 / BMPRII receptor pair (BMPR Type I receptor ALK1 and BMPR Type II receptor BMPRII) on cells (UniProt P37023 22-503; Q13873 27-1038, limits assumed)
[2] = molecular target: T1, ALK1 / BMPRII receptor pair (BMPR Type …); remark: listed apart in the source
[3] = molecular target: T2, IL-18 receptor (IL-18Rα and IL-18Rβ) on HEK-Blue IL-18 cells (UniProt Q13478 19-541; O95256 20-599, limits assumed)
T2 sequence (looked up) 1: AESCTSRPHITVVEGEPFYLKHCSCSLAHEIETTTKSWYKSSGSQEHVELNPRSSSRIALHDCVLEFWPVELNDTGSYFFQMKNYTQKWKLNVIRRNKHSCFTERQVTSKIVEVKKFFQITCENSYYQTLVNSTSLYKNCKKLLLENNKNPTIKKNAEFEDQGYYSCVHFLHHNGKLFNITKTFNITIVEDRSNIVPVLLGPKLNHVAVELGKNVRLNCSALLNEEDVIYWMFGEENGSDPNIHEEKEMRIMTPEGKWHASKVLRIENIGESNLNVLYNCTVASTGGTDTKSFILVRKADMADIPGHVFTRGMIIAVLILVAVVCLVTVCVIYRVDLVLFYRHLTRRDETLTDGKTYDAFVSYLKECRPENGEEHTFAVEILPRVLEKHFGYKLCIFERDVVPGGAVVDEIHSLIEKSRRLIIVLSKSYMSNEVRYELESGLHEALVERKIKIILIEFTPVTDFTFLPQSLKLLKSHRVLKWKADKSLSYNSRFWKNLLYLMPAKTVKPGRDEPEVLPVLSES
T2 sequence (looked up) 2: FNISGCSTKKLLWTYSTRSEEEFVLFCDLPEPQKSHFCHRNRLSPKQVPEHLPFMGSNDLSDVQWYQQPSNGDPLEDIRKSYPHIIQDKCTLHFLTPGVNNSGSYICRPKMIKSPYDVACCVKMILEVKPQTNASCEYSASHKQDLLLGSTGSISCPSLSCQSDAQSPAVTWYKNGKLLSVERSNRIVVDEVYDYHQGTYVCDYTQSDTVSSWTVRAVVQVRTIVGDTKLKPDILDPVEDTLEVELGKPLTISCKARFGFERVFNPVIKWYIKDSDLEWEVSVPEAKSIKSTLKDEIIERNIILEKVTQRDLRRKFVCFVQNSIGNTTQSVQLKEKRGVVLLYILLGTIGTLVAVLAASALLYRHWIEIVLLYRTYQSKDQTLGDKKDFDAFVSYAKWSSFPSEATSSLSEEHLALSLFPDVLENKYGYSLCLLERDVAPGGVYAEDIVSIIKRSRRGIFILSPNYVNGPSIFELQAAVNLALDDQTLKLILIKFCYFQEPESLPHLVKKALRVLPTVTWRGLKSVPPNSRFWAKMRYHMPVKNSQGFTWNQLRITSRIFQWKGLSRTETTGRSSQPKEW

[4] = molecular target: T1, ALK1 / BMPRII receptor pair (BMPR Type …); remark: listed apart in the source

T1 sequence (P37023 22-503 limits assumed, chain 1 of 2): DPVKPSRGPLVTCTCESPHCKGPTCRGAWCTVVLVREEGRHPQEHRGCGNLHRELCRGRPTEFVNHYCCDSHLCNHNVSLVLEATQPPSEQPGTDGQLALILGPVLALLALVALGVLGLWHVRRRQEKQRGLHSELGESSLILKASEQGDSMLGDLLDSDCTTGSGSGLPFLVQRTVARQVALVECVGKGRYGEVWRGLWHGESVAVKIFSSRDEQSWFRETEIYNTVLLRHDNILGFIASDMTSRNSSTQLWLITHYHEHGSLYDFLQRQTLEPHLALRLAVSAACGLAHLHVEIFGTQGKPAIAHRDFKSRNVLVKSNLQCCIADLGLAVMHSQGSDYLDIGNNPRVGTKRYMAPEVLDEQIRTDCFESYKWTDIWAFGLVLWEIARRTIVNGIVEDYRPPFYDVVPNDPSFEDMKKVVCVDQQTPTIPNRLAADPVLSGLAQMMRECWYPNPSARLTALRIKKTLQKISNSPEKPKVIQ
T1 sequence (Q13873 27-1038 limits assumed, chain 2 of 2): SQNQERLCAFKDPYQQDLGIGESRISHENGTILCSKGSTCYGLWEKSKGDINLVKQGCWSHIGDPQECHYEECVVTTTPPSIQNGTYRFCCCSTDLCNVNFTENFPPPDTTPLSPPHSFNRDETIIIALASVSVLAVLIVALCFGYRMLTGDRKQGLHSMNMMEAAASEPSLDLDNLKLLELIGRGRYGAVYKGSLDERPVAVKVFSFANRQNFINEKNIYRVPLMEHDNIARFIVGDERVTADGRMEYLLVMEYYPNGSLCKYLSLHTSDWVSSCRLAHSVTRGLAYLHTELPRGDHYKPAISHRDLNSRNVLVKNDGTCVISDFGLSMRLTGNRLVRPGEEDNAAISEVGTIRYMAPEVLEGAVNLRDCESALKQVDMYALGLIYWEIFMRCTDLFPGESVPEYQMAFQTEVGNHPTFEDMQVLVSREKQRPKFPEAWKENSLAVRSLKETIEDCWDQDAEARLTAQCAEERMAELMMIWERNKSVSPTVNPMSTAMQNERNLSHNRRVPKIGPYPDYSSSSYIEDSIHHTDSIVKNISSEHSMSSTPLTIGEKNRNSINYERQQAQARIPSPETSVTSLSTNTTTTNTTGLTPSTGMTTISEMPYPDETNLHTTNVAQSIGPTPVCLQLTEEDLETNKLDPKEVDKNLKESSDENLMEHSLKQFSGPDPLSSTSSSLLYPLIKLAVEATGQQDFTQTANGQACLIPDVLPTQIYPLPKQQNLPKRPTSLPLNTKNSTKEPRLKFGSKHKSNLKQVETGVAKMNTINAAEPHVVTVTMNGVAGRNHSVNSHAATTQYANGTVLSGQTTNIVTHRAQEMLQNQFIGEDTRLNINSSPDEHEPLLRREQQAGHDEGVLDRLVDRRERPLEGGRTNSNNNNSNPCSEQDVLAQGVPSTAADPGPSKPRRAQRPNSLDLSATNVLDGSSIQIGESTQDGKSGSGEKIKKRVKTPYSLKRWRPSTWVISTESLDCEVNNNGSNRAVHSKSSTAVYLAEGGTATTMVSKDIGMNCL

B1: PRO003 (bispecific antibody)
chain: EVQLLESGGGLVQPGGSLRLSCAASGFTFSIYAMSWVRQAPGKGLEWVSAISGSGGSTYYADSVKGRFTISRDNSKNTLYLQMNSLRAEDTAVYYCARDFDYWGQGTLVTVTSSGGGGSGGGGSGGGGSQSVLTQPPSASGTPGQRVTISCSGSSSNIGSNYVYWYQQLPGTAPKLLIYGNINRPSGVPDRFSGSKSGTSASLAISGLRSEDEADYYCAAWDDSLNGRVFGGGTKLTVLDKTHTCPPCPAPEAAGAPSVFLFPPKPKDTLMISRTPEVTCVVVDVSHEDPEVKFNWYVDGVEVHNAKTKPREEQYNSTYRVVSVLTVLHQDWLNGKEYKCKVSNKALPAPIEKTISKAKGQPREPQVYTLPPSRDELTKNQVSLTCLVKGFYPSDIAVEWESNGQPENNYKTTPPVLDSDGSFFLYSKLTVDKSRWQQGNVFSCSVMHEALHNHYTQKSLSLSPGGGGGSGGGGSEVQLLESGGGLVQPGGSLRLSCAASGFTFSNAWMNWVRQAPGKGLEWVSSISSSSSYIYYADSVKGRFTISRDNSKNTLYLQMNSLRAEDTAVYYCARAVAAGGMFWGLDQWGQGTLVTVTSSGGGGSGGGGSGGGGSQSVLTQPPSASGTPGQRVTISCSGSRSNIGSNSVHWYQQLPGTAPKLLIYGNSNRPSGVPDRFSGSKSGTSASLAISGLRSEDEADYYCQSYDSSLNDHVVFGGGTKLTVL
Agonist activity, % Emax BMP9 [1]: 47 % Emax BMP9 | Agonist activity, EC50 [1]: 100 pM | Agonist activity, EMAX (RLU) [1]: 1.25e+06 RLU | Agonist activity, % Emax BMP9 [2]: 47 % Emax BMP9 | Agonist activity, EC50 [2]: 100 pM | Agonist activity, EMAX (RLU) [2]: 1.25e+06 RLU

B2: PRO006 (bispecific antibody)
chain: EVQLLESGGGLVQPGGSLRLSCAASGFTFSDYYMTWIRQAPGKGLEWVSSISGGSTYYADSRKGRFTISRDNSENTLYLQMNSLRAEDTAVYYCARDFGVAGWFGQYGMDVWGQGTLVTVSSGGGGSGGGGSGGGGSQSVLTQPPSASGTPGQRVTISCTGSSSNIGAGYDVHWYQQLPGTAPKLLIYRSNQRPSGVPDRFSGSKSGTSASLAISGLRSEDEADYYCSSYAGNYNLVFGGGTKLTVLDKTHTCPPCPAPEAAGAPSVFLFPPKPKDTLMISRTPEVTCVVVDVSHEDPEVKFNWYVDGVEVHNAKTKPREEQYNSTYRVVSVLTVLHQDWLNGKEYKCKVSNKALPAPIEKTISKAKGQPREPQVYTLPPSRDELTKNQVSLTCLVKGFYPSDIAVEWESNGQPENNYKTTPPVLDSDGSFFLYSKLTVDKSRWQQGNVFSCSVMHEALHNHYTQKSLSLSPGGGGGSGGGGSEVQLLESGGGLVQPGGSLRLSCAASGFTFSSYAMSWVRQAPGKGLEWVANINQDGSEKNYVDSMRGRFTISRDNSKNTLYLQMNSLRAEDTAVYYCAREFDYWGQGTLVTVTSSGGGGSGGGGSGGGGSQSVLAQPPSASGTPGQRVTISCSGSSSNIGSNYVYWYQQLPGTAPKLLIYGNNKRPSGVPDRFSGSKSGTSASLAISGLRSEDEADYYCAAWDDSLNGRVFGGGTKLTVL
Agonist activity, % Emax BMP9 [1]: 35 % Emax BMP9 | Agonist activity, EC50 [1]: 100 pM | Agonist activity, EMAX (RLU) [1]: 929000 RLU | Agonist activity, % Emax BMP9 [2]: 35 % Emax BMP9 | Agonist activity, EC50 [2]: 100 pM | Agonist activity, EMAX (RLU) [2]: 929000 RLU

B3: DGL208 (bispecific antibody)
chain 1: QVQLVESGGGLVQAGGSLRLSCAASGRTFSKHAMGWFRQAPGKEREFVAAIDWSGGSTYYADSVKGRFTISRDNAKNTVYLQMDSLKPEDTAVYYCAADSYTDYAQLWLPELESEYDYWGQGTLVTVSSPLAPDKTHTCPPCPAPEAAGAPSVFLFPPKPKDTLMISRTPEVTCVVVDVSHEDPEVKFNWYVDGVEVHNAKTKPREEQYNSTYRVVSVLTVLHQDWLNGKEYKCKVSNKALPAPIEKTISKAKGQPREPQVCTLPPSRDELTKNQVSLSCAVKGFYPSDIAVEWESNGQPENNYKTTPPVLDSDGSFFLVSKLTVDKSRWQQGNVFSCSVMHEALHNHYTQKSLSLSPGWSHPQFEK
chain 2: not shown
HEK-Blue assay, % human IL-18 [3]: 44 % of human IL18 activity

B4: PRO004 (bispecific antibody)
chain: EVQLLESGGGLVQPGGSLRLSCAASGFTFSNAWMNWVRQAPGKGLEWVSSISSSSSYIYYADSVKGRFTISRDNSKNTLYLQMNSLRAEDTAVYYCARAVAAGGMFWGLDQWGQGTLVTVTSSGGGGSGGGGSGGGGSQSVLTQPPSASGTPGQRVTISCSGSRSNIGSNSVHWYQQLPGTAPKLLIYGNSNRPSGVPDRFSGSKSGTSASLAISGLRSEDEADYYCQSYDSSLNDHVVFGGGTKLTVLDKTHTCPPCPAPEAAGAPSVFLFPPKPKDTLMISRTPEVTCVVVDVSHEDPEVKFNWYVDGVEVHNAKTKPREEQYNSTYRVVSVLTVLHQDWLNGKEYKCKVSNKALPAPIEKTISKAKGQPREPQVYTLPPSRDELTKNQVSLTCLVKGFYPSDIAVEWESNGQPENNYKTTPPVLDSDGSFFLYSKLTVDKSRWQQGNVFSCSVMHEALHNHYTQKSLSLSPGGGGGSGGGGSEVQLLESGGGLVQPGGSLRLSCAASGFTFSIYAMSWVRQAPGKGLEWVSAISGSGGSTYYADSVKGRFTISRDNSKNTLYLQMNSLRAEDTAVYYCARDFDYWGQGTLVTVTSSGGGGSGGGGSGGGGSQSVLTQPPSASGTPGQRVTISCSGSSSNIGSNYVYWYQQLPGTAPKLLIYGNINRPSGVPDRFSGSKSGTSASLAISGLRSEDEADYYCAAWDDSLNGRVFGGGTKLTVL
Agonist activity, % Emax BMP9 [1]: 46 % Emax BMP9 | Agonist activity, EC50 [1]: 500 pM | Agonist activity, EMAX (RLU) [1]: 1.21e+06 RLU | Agonist activity, % Emax BMP9 [2]: 46 % Emax BMP9 | Agonist activity, EC50 [2]: 500 pM | Agonist activity, EMAX (RLU) [2]: 1.21e+06 RLU

B5: DGL288 (bispecific antibody)
chain: EVQLLESGGGLVQPGGSLRLSCAASGFTFSDYYMTWIRQAPGKGLEWVSSISGGSTYYADSRKGRFTISRDNSENTLYLQMNSLRAEDTAVYYCARDFGVAGWFGQYGMDVWGQGTLVTVSSGGGGSGGGGSGGGGSQSVLTQPPSASGTPGQRVTISCTGSSSNIGAGYDVHWYQQLPGTAPKLLIYRSNQRPSGVPDRFSGSKSGTSASLAISGLRSEDEADYYCSSYAGNYNLVFGGGTKLTVLDKGPSVFPLAPEPKSSEVQLLESGGGLVQPGGSLRLSCAASGFTFSSYAMSWVRQAPGKGLEWVANINQDGSEKNYVDSMRGRFTISRDNSKNTLYLQMNSLRAEDTAVYYCAREFDYWGQGTLVTVTSSGGGGSGGGGSGGGGSQSVLAQPPSASGTPGQRVTISCSGSSSNIGSNYVYWYQQLPGTAPKLLIYGNNKRPSGVPDRFSGSKSGTSASLAISGLRSEDEADYYCAAWDDSLNGRVFGGGTKLTVLDKTHTCPPCPAPEAAGAPSVFLFPPKPKDTLMISRTPEVTCVVVDVSHEDPEVKFNWYVDGVEVHNAKTKPREEQYNSTYRVVSVLTVLHQDWLNGKEYKCKVSNKALPAPIEKTISKAKGQPREPQVYTLPPSRDELTKNQVSLTCLVKGFYPSDIAVEWESNGQPENNYKTTPPVLDSDGSFFLYSKLTVDKSRWQQGNVFSCSVMHEALHNHYTQKSLSLSPG
Agonist activity, % Emax BMP9 [1]: 76 % Emax BMP9 | Agonist activity, EC50 [1]: 70 pM | Agonist activity, EMAX (RLU) [1]: 2e+06 RLU | Agonist activity, % Emax BMP9 [2]: 76 % Emax BMP9 | Agonist activity, EC50 [2]: 70 pM | Agonist activity, EMAX (RLU) [2]: 2e+06 RLU | pSMAD1 ELISA in HUVEC, RLU 15 minutes, at 0 nM (baseline) [4]: 4.5 RLU | pSMAD1 ELISA in HUVEC, RLU 15 minutes, at 0.4 nM [4]: 4.9 RLU | pSMAD1 ELISA in HUVEC, RLU 15 minutes, at 2 nM [4]: 6.5 RLU | pSMAD1 ELISA in HUVEC, RLU 15 minutes, at 10 nM [4]: 6.7 RLU | pSMAD1 ELISA in HUVEC, RLU 60 minutes, at 0 nM (baseline) [4]: 4.5 RLU | pSMAD1 ELISA in HUVEC, RLU 60 minutes, at 0.4 nM [4]: 35 RLU | pSMAD1 ELISA in HUVEC, RLU 60 minutes, at 2 nM [4]: 26.9 RLU | pSMAD1 ELISA in HUVEC, RLU 60 minutes, at 10 nM [4]: 22.7 RLU

B6: PRO005 (bispecific antibody)
chain: EVQLLESGGGLVQPGGSLRLSCAASGFTFSSYAMSWVRQAPGKGLEWVANINQDGSEKNYVDSMRGRFTISRDNSKNTLYLQMNSLRAEDTAVYYCAREFDYWGQGTLVTVTSSGGGGSGGGGSGGGGSQSVLAQPPSASGTPGQRVTISCSGSSSNIGSNYVYWYQQLPGTAPKLLIYGNNKRPSGVPDRFSGSKSGTSASLAISGLRSEDEADYYCAAWDDSLNGRVFGGGTKLTVLDKTHTCPPCPAPEAAGAPSVFLFPPKPKDTLMISRTPEVTCVVVDVSHEDPEVKFNWYVDGVEVHNAKTKPREEQYNSTYRVVSVLTVLHQDWLNGKEYKCKVSNKALPAPIEKTISKAKGQPREPQVYTLPPSRDELTKNQVSLTCLVKGFYPSDIAVEWESNGQPENNYKTTPPVLDSDGSFFLYSKLTVDKSRWQQGNVFSCSVMHEALHNHYTQKSLSLSPGGGGGSGGGGSEVQLLESGGGLVQPGGSLRLSCAASGFTFSDYYMTWIRQAPGKGLEWVSSISGGSTYYADSRKGRFTISRDNSENTLYLQMNSLRAEDTAVYYCARDFGVAGWFGQYGMDVWGQGTLVTVSSGGGGSGGGGSGGGGSQSVLTQPPSASGTPGQRVTISCTGSSSNIGAGYDVHWYQQLPGTAPKLLIYRSNQRPSGVPDRFSGSKSGTSASLAISGLRSEDEADYYCSSYAGNYNLVFGGGTKLTVL
Agonist activity, % Emax BMP9 [1]: 35 % Emax BMP9 | Agonist activity, EC50 [1]: 75 pM | Agonist activity, EMAX (RLU) [1]: 931000 RLU | Agonist activity, % Emax BMP9 [2]: 35 % Emax BMP9 | Agonist activity, EC50 [2]: 75 pM | Agonist activity, EMAX (RLU) [2]: 931000 RLU
